Measurements: patent US20250320281A1

Legend:
Assay in all cases: cell-based or functional assay
[1] = target: HIV-1 Env of isolate MGRM-A-009 (pseudovirus) (HIV-1)
[2] = target: HIV-1 Env of isolate MGRM-A-003 (pseudovirus) (HIV-1)
[3] = target: HIV-1 Env of isolate MGRM-A-008 (pseudovirus) (HIV-1)
[4] = target: HIV-1 Env of isolate 92UG031 (pseudovirus) (HIV-1)
[5] = target: HIV-1 Env of isolate 92TH021 (pseudovirus) (HIV-1)
[6] = target: HIV-1 Env of isolate MGRM-AE-002 (pseudovirus) (HIV-1)
[7] = target: HIV-1 Env of isolate CMU02 (pseudovirus) (HIV-1)
[8] = target: HIV-1 Env of isolate 94UG103 (pseudovirus) (HIV-1)
[9] = target: HIV-1 Env of isolate 93WR029 (pseudovirus) (HIV-1)
[10] = target: HIV-1 Env of isolate MGRM-A-001 (pseudovirus) (HIV-1)
[11] = target: HIV-1 Env of isolate 92RW008 (pseudovirus) (HIV-1)
[12] = target: HIV-1 Env of isolate MGRM-A-007 (pseudovirus) (HIV-1)
[13] = target: HIV-1 Env of isolate MGRM-A-010 (pseudovirus) (HIV-1)
[14] = target: HIV-1 Env of isolate 92WR026 (pseudovirus) (HIV-1)
[15] = target: HIV-1 Env of isolate 94KE105 (pseudovirus) (HIV-1)
[16] = target: HIV-1 Env of isolate MGRM-A-014 (pseudovirus) (HIV-1)
[17] = target: HIV-1 Env of isolate VLGCA1 (pseudovirus) (HIV-1)
[18] = target: HIV-1 Env of isolate MGRM-A-002 (pseudovirus) (HIV-1)
[19] = target: HIV-1 Env of isolate MGRM-AE-003 (pseudovirus) (HIV-1)
[20] = target: HIV-1 Env of isolate MGRM-A-004 (pseudovirus) (HIV-1)
[21] = target: HIV-1 Env of isolate 92UG037 (pseudovirus) (HIV-1)
[22] = target: HIV-1 Env of isolate MGRM-AE-001 (pseudovirus) (HIV-1)
[23] = target: HIV-1 Env of isolate MGRM-A-006 (pseudovirus) (HIV-1)
[24] = target: HIV-1 Env of isolate MGRM-A-011 (pseudovirus) (HIV-1)
[25] = target: HIV-1 Env of isolate MGRM-A-012 (pseudovirus) (HIV-1)
[26] = target: HIV-1 Env of isolate MGRM-A-013 (pseudovirus) (HIV-1)
[27] = target: HIV-1 Env of isolate 92WR021 (pseudovirus) (HIV-1)
[28] = target: HIV-1 Env of isolate MGRM-A-005 (pseudovirus) (HIV-1)
[29] = target: HIV-1 Env of isolate 92WR020 (pseudovirus) (HIV-1)
[30] = target: HIV-1 Env of isolate 92WR009 (pseudovirus) (HIV-1)
[31] = target: HIV-1 Env of isolate 93UG077 (pseudovirus) (HIV-1)
[32] = target: HIV-1 Env of isolate 92WR024 (pseudovirus) (HIV-1)

B1: PGT-123 (4858_P08) (antibody, V domains shown)
VH: QLHLQESGPGLVKPPETLSLTCSVSGASINDAYWSWIRQSPGKRPEWVGYVHHSGDTNYNPSLKRRVTFSLDTAKNEVSLKLVDLTAADSATYFCARALHGKRIYGIVALGELFTYFYMDVWGKGTAVTVSS
VL: SSMSVSPGETAKISCGKESIGSRAVQWYQQKPGQPPSLIIYNNQDRPAGVPERFSASPDFRPGTTATLTITNVDAEDEADYYCHIYDARGGTNWVFDRGTTLTVL
B1 was tested, and the IC50 (µg/mL), pseudovirus neutralization [1] was 0.004 µg/mL, the IC50 (µg/mL), pseudovirus neutralization [2] was 0.495 µg/mL and the IC50 (µg/mL), pseudovirus neutralization [3] was over 50 µg/mL. The IC50 (µg/mL), pseudovirus neutralization [4] was over 50 µg/mL, the IC50 (µg/mL), pseudovirus neutralization [5] was over 50 µg/mL and the IC50 (µg/mL), pseudovirus neutralization [6] was over 50 µg/mL. The IC50 (µg/mL), pseudovirus neutralization [7] was over 50 µg/mL, the IC50 (µg/mL), pseudovirus neutralization [8] was 0.678 µg/mL and the IC50 (µg/mL), pseudovirus neutralization [9] was over 50 µg/mL. The IC50 (µg/mL), pseudovirus neutralization [10] was over 50 µg/mL, the IC50 (µg/mL), pseudovirus neutralization [11] was 0.003 µg/mL and the IC50 (µg/mL), pseudovirus neutralization [12] was over 50 µg/mL. It also gave an IC50 (µg/mL), pseudovirus neutralization [13] of 0.705 µg/mL, an IC50 (µg/mL), pseudovirus neutralization [14] of 0.012 µg/mL and an IC50 (µg/mL), pseudovirus neutralization [15] of 0.024 µg/mL. It also gave an IC50 (µg/mL), pseudovirus neutralization [16] of 0.003 µg/mL, an IC50 (µg/mL), pseudovirus neutralization [17] of over 50 µg/mL and an IC50 (µg/mL), pseudovirus neutralization [18] of 0.011 µg/mL. The IC50 (µg/mL), pseudovirus neutralization [19] was over 50 µg/mL, the IC50 (µg/mL), pseudovirus neutralization [20] was over 50 µg/mL and the IC50 (µg/mL), pseudovirus neutralization [21] was 0.023 µg/mL. It also gave an IC50 (µg/mL), pseudovirus neutralization [22] of over 50 µg/mL, an IC50 (µg/mL), pseudovirus neutralization [23] of over 50 µg/mL and an IC50 (µg/mL), pseudovirus neutralization [24] of over 50 µg/mL. It also gave an IC50 (µg/mL), pseudovirus neutralization [25] of 0.192 µg/mL, an IC50 (µg/mL), pseudovirus neutralization [26] of 0.565 µg/mL and an IC50 (µg/mL), pseudovirus neutralization [27] of 0.005 µg/mL. For the same binder, the IC50 (µg/mL), pseudovirus neutralization [28] was over 50 µg/mL, the IC50 (µg/mL), pseudovirus neutralization [29] was 0.002 µg/mL and the IC50 (µg/mL), pseudovirus neutralization [30] was 15.7 µg/mL. The IC50 (µg/mL), pseudovirus neutralization [31] was 0.028 µg/mL and the IC50 (µg/mL), pseudovirus neutralization [32] was over 50 µg/mL.
